Source: the RNAGym collection of RNA variant scans (doi:10.1073/pnas.2313332121)

B1: TPR t1 (parent)
chain: GACCAAUCUGCCCUCAGAGCUCGAGAACAUCUUCGGAUGCAGAGGAGGCAGGCUUCGGUGGCGCGAUAGCGCCAACGUCCUCAACCUCCAAUGCAUCCCACCACAUGAUGAUGCCUGAAGAGCCUUGGUUUUUUG

Variants of: B1
Assay: polymerase ribozyme fitness, log enrichment relative to wild type (log ratio); higher = more active; in vitro selection for triplet polymerase activity
Outline: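 Frozen incubation at −7 °C formed the core of a single, triplicate in vitro selection round applied to PCR-built, transcribed mutant libraries of each subunit of a heterodimeric triplet polymerase ribozyme. Extended constructs were gel-excised, captured with streptavidin beads and amplified by RT-PCR, and input and output libraries were Illumina-sequenced with a filter of ≥10 input reads and ≥1 read per output. Fitness is the logarithm of genotype enrichment relative to wild-type enrichment, with inverse-variance-weighted replicate averaging, and the logarithm is base 2.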

Point of comparison: C12G C124A, “polymerase ribozyme fitness (log ratio)” value 1.61. Against it:
- C12A A46U G47C — lower, -1.36
- C12U C62A C73U G77U — lower, -3.65
- C12U C13U C89U U133G — lower, -0.318
- C12A C20A G61C — lower, -4.95
- C12A G69A — lower, -2.89
- C12A G69U — lower, -0.288
- C12G A29U C56U A118C C123G — lower, -0.961
- C12A G35A C49A — lower, -5.9
- C12U A46C G47U C86A A108G — lower, -1.87
- C11U G42C C53A — lower, -2.22
- C12G C13A C56U C124A U132C — lower, 0.686
- C12G C98U A119G — lower, 0.523
- C12G G120C — lower, 1.23
- C11U G58A G71U A90G U116C — lower, -2.7
- C11U G60A U131G — lower, -2.06
- C12A C123G — lower, 1.19
- C12A C40A C70G — lower, -4.57
- C12A G117C A121G — lower, -3.52
- C12A C53G G69A C115A U116A — lower, -7.23
- C12A C88G — lower, -1.56
- C12A U130C U131C — lower, -0.148
- C11U U106G — lower, -1.1
- C12U C49A A50C A95C — lower, -1.09
- C12A C64U — lower, -0.93
- C12U C70U U129C — lower, -0.46
- C12G C56G C70G — lower, -3.6
- C12A C85U — lower, -1.04
- C12A C53A G61U U109G G117C U125A U126C — lower, -7.8
- C12G C40U A43U A83U A105C C124G — lower, -5.47
- C12U C40G — lower, -0.0831
- C12U C56A G69A — lower, -2.89
- C12U C15G G63U G120U — lower, -0.846
- C12A U81A U133A — lower, -1.05
- C12G C53A G71U G107C U112C — lower, -4.39
- C12U A26U G93U — lower, -3.6
- C12A C20U A26C G48A C49A A121G U133A — lower, -5.75
- C12U C40U G42C C80A C88G C102A A111G C123U U134G — lower, -6.19
- C12U C34A U132A — lower, -1.35
- C12G A24U C76A C82A G120C — lower, -6.17
- C12G U55A C70U G113C — lower, -3.9
- C12A G57U G61U C89G — lower, -5.96
- C12A C62G C72G — lower, -6.48
- C11U G39A — lower, -1.08
- C11U G63U U78C C101A — lower, -4.53
- C11U G128C — lower, -2.9
- C12A G61A C64U — lower, -4
- C12G C72G C104U C123U C124A — higher, 2.06
- C12U A50G G71U U130C — lower, 0.0947
- C12G G36C A43C G63C — lower, -4.59
- C12G G36U C56U A121U G122U — lower, 0.307
- C12G C20U G36A G71A C80U C82A C88A G120U U126C — lower, -5.21
- C12A G61U C70U U81G — lower, -4.98
- C12G G69U G93U C94G U96A C97U U109A — lower, -5.02
- C11U U81A — lower, -2.1
- C12A C115A — lower, -0.819
- C12U A91U G135U — lower, -2.33
- C12A G47U G60A U78A — lower, -2.01
- C12G U87A — lower, -0.0361
- C12A U14G — lower, -1.01
- C12U A46C G52U — lower, -0.969
- C11U G39U C86G — lower, -2.92
- C11U U14G G19U A29G C31U U32C C72G A111U U129A — lower, -7.29
- C12G G44A G48U A103G U112A C115A — lower, -6.92
- C12G G47A G48C A68G A103G A105C U106A G117U G120C — lower, -7.36
- C11U U30G G120C — lower, -5.71
- C11U G63U — lower, -1.27
- C11U G63A — lower, -1.15
- C12U A29G C73G U92C C94A — lower, -5.22
- C11U G47C C56U U78A A100U C115U U131C — lower, -4.41
- C11U U32C C70U C98U C124G — lower, -1.48
- C12G U30C A41U G48A — lower, -5.05
- C12G C15G A46U A74G U78A C114A — lower, -6.73
- C12A G113C — lower, -2.64
- C12A G113U — lower, -2.09
- C12G G61U G107U — lower, -4.66
- C12A U14A C28U C85U — lower, -3.93
- C12G G47C G52A C64U C123A — lower, -3.61
- C12A U126C — lower, -2.01
- C12A G19C G58A C82G — lower, -3.7
- C12A A41G G61U G117C G135C — lower, -4.3
- C11U G113A — lower, -1.33
- C12U A18G G63C C88G A90C C114A G122A — lower, -5.09
- C11U G61A — lower, 0.135
